Columns and labels:
[1] = target: T1, human CD73 expressed on the cell surface (human, UniProt P21589 27-549); assay: cell-based or functional assay
T1 sequence: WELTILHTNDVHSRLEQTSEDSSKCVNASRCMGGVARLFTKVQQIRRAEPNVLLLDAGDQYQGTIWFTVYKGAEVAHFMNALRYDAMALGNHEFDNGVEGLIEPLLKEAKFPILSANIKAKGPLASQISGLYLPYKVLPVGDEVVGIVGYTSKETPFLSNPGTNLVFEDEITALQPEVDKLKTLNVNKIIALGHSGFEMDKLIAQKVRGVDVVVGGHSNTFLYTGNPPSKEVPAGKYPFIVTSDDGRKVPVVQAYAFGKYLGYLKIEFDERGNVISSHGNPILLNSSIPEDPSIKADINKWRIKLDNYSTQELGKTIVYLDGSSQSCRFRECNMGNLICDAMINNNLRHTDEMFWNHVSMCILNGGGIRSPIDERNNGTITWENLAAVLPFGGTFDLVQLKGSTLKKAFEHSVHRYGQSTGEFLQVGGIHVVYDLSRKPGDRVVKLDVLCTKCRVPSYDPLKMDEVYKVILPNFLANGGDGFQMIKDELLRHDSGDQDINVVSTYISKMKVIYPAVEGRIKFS

[2] = target: T2, cynomolgus monkey CD73 antigen (cynomolgus monkey, UniProt A0A2K5V5U7 27-547); assay: ForteBio BLI; antigen on sensor, 100 nM scFv; monovalent; 1:1 model
T2 construct: also called Biotinylated cynomolgus monkey CD73
T2 sequence: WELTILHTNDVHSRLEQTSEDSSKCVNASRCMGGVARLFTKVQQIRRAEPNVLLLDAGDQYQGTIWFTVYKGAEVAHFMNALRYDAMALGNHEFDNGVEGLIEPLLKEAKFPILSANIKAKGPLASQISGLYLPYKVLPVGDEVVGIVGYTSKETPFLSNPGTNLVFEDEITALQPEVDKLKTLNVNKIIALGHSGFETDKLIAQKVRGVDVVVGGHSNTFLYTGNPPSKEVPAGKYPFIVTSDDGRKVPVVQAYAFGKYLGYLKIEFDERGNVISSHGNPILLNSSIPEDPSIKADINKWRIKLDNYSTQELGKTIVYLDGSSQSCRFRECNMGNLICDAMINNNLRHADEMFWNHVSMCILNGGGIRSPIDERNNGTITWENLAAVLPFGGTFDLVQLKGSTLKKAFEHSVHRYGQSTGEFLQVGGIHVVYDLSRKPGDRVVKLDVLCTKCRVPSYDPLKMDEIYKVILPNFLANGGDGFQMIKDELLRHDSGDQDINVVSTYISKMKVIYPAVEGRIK
Description: (§1) Human or cynomolgus monkey CD73 antigen protein was loaded on-line to the AHQ sensor (ForteBio) for ForteBio affinity measurement. […] Kinetic analysis was performed by using a 1:1 binding model.

human CD73 antigen = target: T3, human CD73 antigen (human, UniProt P21589 27-547); assay: as above
T3 construct: also called Biotinylated Human CD73
T3 sequence (looked up): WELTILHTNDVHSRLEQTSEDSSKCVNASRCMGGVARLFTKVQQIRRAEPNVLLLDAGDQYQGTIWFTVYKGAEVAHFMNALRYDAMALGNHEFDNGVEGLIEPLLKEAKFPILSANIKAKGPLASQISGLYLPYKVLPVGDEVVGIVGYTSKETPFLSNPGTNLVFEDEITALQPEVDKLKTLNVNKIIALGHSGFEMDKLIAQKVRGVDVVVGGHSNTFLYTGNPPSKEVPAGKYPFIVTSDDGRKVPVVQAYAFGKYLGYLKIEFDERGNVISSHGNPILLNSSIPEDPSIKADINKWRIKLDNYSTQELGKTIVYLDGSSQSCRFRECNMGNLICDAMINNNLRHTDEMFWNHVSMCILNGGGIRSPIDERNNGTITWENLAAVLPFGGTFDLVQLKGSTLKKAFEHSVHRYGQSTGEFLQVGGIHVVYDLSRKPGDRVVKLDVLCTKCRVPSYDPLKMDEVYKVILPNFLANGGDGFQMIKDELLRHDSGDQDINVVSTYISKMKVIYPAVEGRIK
Description: as §1

B1: ADI-37504 (antibody, human IgG4 S228P, kappa, F234A L235A, V domains shown)
VH: EVQLLESGGGLVQPGGSLRLSCAASGFTFHNYAMSWVRQAPGKGLEWVSAISGTGRATYYADSVKGRFTISRDNSKNTLYLQMNSLRAEDTAVYYCARGGPYGSGSYWDTFDYWGQGTLVTVSS
VL: EIVMTQSPATLSVSPGERATLSCRASQSVSSNLAWYQQKPGQAPRLLIYGASTRATGIPARFSGSGSGTEFTLTISSLQSEDFAVYYCQQYTNHYTFGGGTKVEIKR
IC50 for inhibiting the enzymatic activity of CD73 (Calu-6 cells) [1]: 70 ng/mL

B2: scfv fragment of ADI-37503 (scFv, V domains shown)
VH: EVQLLESGGGLVQPGGSLRLSCAASGFTFSNYAMSWVRQAPGKGLEWVSAISGRASSTYYADSVKGRFTISRDNSKNTLYLQMNSLRAEDTAVYYCARGGPYGSGSYWDTFDYWGQGTLVTVSS
VL: EIVMTQSPATLSVSPGERATLSCRASQSVSSNLAWYQQKPGQAPRLLIYGASTRATGIPARFSGSGSGTEFTLTISSLQSEDFAVYYCQQYTNHYTFGGGTKVEIK
Kd [2]: 6.61 nM | Kd (human CD73 antigen): 7.95 nM

B3: ADI-37503 (antibody, human IgG4 S228P, kappa, F234A L235A, V domains shown)
VH: EVQLLESGGGLVQPGGSLRLSCAASGFTFSNYAMSWVRQAPGKGLEWVSAISGRASSTYYADSVKGRFTISRDNSKNTLYLQMNSLRAEDTAVYYCARGGPYGSGSYWDTFDYWGQGTLVTVSS
VL: EIVMTQSPATLSVSPGERATLSCRASQSVSSNLAWYQQKPGQAPRLLIYGASTRATGIPARFSGSGSGTEFTLTISSLQSEDFAVYYCQQYTNHYTFGGGTKVEIKR
IC50 for inhibiting the enzymatic activity of CD73 (Calu-6 cells) [1]: 62 ng/mL

B4: ADI-37507 (antibody, human IgG4 S228P, kappa, F234A L235A, V domains shown)
VH: EVQLLESGGGLVQPGGSLRLSCAASGFTFLNYAMAWVRQAPGKGLEWVSAISGRATSTYYADSVKGRFTISRDNSKNTLYLQMNSLRAEDTAVYYCARGGPYGSGSYWDTFDYWGQGTLVTVSS
VL: EIVMTQSPATLSVSPGERATLSCRASQSVSSNLAWYQQKPGQAPRLLIYGASTRATGIPARFSGSGSGTEFTLTISSLQSEDFAVYYCQQYTNHYTFGGGTKVEIKR
IC50 for inhibiting the enzymatic activity of CD73 (Calu-6 cells) [1]: 78 ng/mL

B5: scfv fragment of ADI-37505 (scFv, V domains shown)
VH: QVQLVESGGGLVQPGGSLRLSCAASGFTFSNYAMTWVRQAPGKGLEWVSAISGRGTATYYADSVKGRFTISRDNSKNTLYLQMNSLRAEDTAVYYCARGGPYGSGSYWDTFDYWGQGTLVTVSS
VL: EIVMTQSPATLSVSPGERATLSCRASQSVSSNLAWYQQKPGQAPRLLIYGASTRATGIPARFSGSGSGTEFTLTISSLQSEDFAVYYCQQYTNHYTFGGGTKVEIK
Kd [2]: 5.34 nM | Kd (human CD73 antigen): 5.56 nM

B6: scfv fragment of ADI-37506 (scFv, V domains shown)
VH: EVQLLESGGGLVQPGGSLRLSCAASGFTFSNLAMSWVRQAPGKGLEWVSAISGRATSTYYADSVKGRFTISRDNSKNTLYLQMNSLRAEDTAVYYCARGGPYGSGSYWDTFDYWGQGTLVTVSS
VL: EIVMTQSPATLSVSPGERATLSCRASQSVSSNLAWYQQKPGQAPRLLIYGASTRATGIPARFSGSGSGTEFTLTISSLQSEDFAVYYCQQYTNHYTFGGGTKVEIK
Kd [2]: 4.77 nM | Kd (human CD73 antigen): 5.41 nM

B7: scfv fragment of ADI-37507 (scFv, V domains shown)
VH: EVQLLESGGGLVQPGGSLRLSCAASGFTFLNYAMAWVRQAPGKGLEWVSAISGRATSTYYADSVKGRFTISRDNSKNTLYLQMNSLRAEDTAVYYCARGGPYGSGSYWDTFDYWGQGTLVTVSS
VL: EIVMTQSPATLSVSPGERATLSCRASQSVSSNLAWYQQKPGQAPRLLIYGASTRATGIPARFSGSGSGTEFTLTISSLQSEDFAVYYCQQYTNHYTFGGGTKVEIK
Kd [2]: 23.7 nM | Kd (human CD73 antigen): 9.21 nM

B8: scfv fragment of ADI-37504 (scFv, V domains shown)
VH: EVQLLESGGGLVQPGGSLRLSCAASGFTFHNYAMSWVRQAPGKGLEWVSAISGTGRATYYADSVKGRFTISRDNSKNTLYLQMNSLRAEDTAVYYCARGGPYGSGSYWDTFDYWGQGTLVTVSS
VL: EIVMTQSPATLSVSPGERATLSCRASQSVSSNLAWYQQKPGQAPRLLIYGASTRATGIPARFSGSGSGTEFTLTISSLQSEDFAVYYCQQYTNHYTFGGGTKVEIK
Kd [2]: 20.2 nM | Kd (human CD73 antigen): 15.4 nM

B9: ADI-37532 (antibody, human IgG4 S228P, kappa, F234A L235A, V domains shown)
VH: QVQLVESGGGVVQPGRSLRLSCAASGFTFSSYSMHWVRQAPGKGLEWVAHIVEGSDKYYADSVKGRFTISRDNSKNTLYLQMNSLRAEDTAVYYCARSRYDWSLFDIWGQGTMVTVSS
VL: EIVLTQSPGTLSLSPGERATLSCGASQSVSSSYLAWYQQKPGQAPRLLIYGASSRATGIPDRFSGSGSGTDFTLTISRLEPEDFAVYYCQQYVLYPFTFGGGTKVEIKR
IC50 for inhibiting the enzymatic activity of CD73 (Calu-6 cells) [1]: 114 ng/mL

B10: ADI-37542 (antibody, human IgG4 S228P, kappa, F234A L235A, V domains shown)
VH: QVQLQESGPGLVKPSETLSLTCAVSGYSISEGYYWGWIRQPPGKGLEWIGSIYHTGFTYYNPSLKSRVTISVDTSKNQFSLKLSSVTAADTAVYYCARASIYTPPPEYFQHWGQGTLVTVSS
VL: DIQMTQSPSTLSASVGDRVTITCRASQSISSWLAWYQQKPGKAPKLLIYDASSLESGVPSRFSGSGSGTEFTLTISSLQPDDFATYYCQQSRIYSTFGGGTKVEIKR
IC50 for inhibiting the enzymatic activity of CD73 (Calu-6 cells) [1]: 189 ng/mL

B11: ADI-37543 (antibody, human IgG4 S228P, kappa, F234A L235A, V domains shown)
VH: QVQLQESGPGLVKPSETLSLTCAVSGYSISSGYYWAWIRQPPGKGLEWIGSIFHSGFTFYNPSLKSRVTISVDTSKNQFSLKLSSVTAADTAVYYCARASIYTPPPEYFQHWGQGTLVTVSS
VL: DIQMTQSPSTLSASVGDRVTITCRASQSISSWLAWYQQKPGKAPKLLIYDASSLESGVPSRFSGSGSGTEFTLTISSLQPDDFATYYCQQSRIYSTFGGGTKVEIKR
IC50 for inhibiting the enzymatic activity of CD73 (Calu-6 cells) [1]: 196 ng/mL

B12: ADI-37497 (antibody, human IgG4 S228P, kappa, F234A L235A, V domains shown)
VH: EVQLVESGGGLVQPGGSLRLSCAASGFTFDDYFMHWVRQAPGKGLEWVSGISWSSGPIDYADSVKGRFTISRDNAKNSLYLQMNSLRAEDTAVYYCAKGKYLPTGSVDYWGQGTLVTVSS
VL: EIVLTQSPGTLSLSPGERATLSCRASQSVSSSYLAWYQQKPGQAPRLLIYGASSRATGIPDRFSGSGSGTDFTLTISRLEPEDFAVYYCQQYYDYPPITFGGGTKVEIKR
IC50 for inhibiting the enzymatic activity of CD73 (Calu-6 cells) [1]: 147 ng/mL

B13: ADI-37496 (antibody, human IgG4 S228P, kappa, F234A L235A, V domains shown)
VH: EVQLVESGGGLVQPGRSLRLSCAASGFTFDDFYMHWVRQAPGKGLEWVSGISWSSTSIDYADSVKGRFTISRDNAKNSLYLQMNSLRAEDTAVYYCAKGKYLPTGSVDYWGQGTLVTVSS
VL: EIVLTQSPGTLSLSPGERATLSCRASQSVSSSYLAWYQQKPGQAPRLLIYGASSRATGIPDRFSGSGSGTDFTLTISRLEPEDFAVYYCQQYYDYPPITFGGGTKVEIKR
IC50 for inhibiting the enzymatic activity of CD73 (Calu-6 cells) [1]: 173 ng/mL

B14: ADI-37513 (antibody, human IgG4 S228P, kappa, F234A L235A, V domains shown)
VH: EVQLLESGGGVVQPGRSLRLSCAASGFTFNFYGMHWVRQAPGKGLEWVAVINDEGINKYYADSVKGRFTISRDNSKNTLYLQMNSLRAEDTAVYYCARGGARYPIAFDIWGQGTMVTVSS
VL: DIQLTQSPSSVSASVGDRVTITCRASQDISSWLAWYQQKPGKAPKLLIYAASSLQSGVPSRFSGSGSGTDFTLTISSLQPEDFATYYCQQANDFPITFGGGTKVEIKR
IC50 for inhibiting the enzymatic activity of CD73 (Calu-6 cells) [1]: 143 ng/mL

B15: ADI-37522 (antibody, human IgG4 S228P, kappa, F234A L235A, V domains shown)
VH: QVQLVESGGGVVQPGRSLRLSCAASGFTFSHYGMHWVRQAPGKGLEWVAVISDEGSNKYYADSVKGRFTISRDNSKNTLYLQMNSLRAEDTAVYYCARGWLRYPIAFDIWGQGTMVTVSS
VL: DIQLTQSPSSVSASVGDRVTITCRASQDISSWLAWYQQKPGKAPKLLIYAASSLQSGVPSRFSGSGSGTDFTLTISSLQPEDFATYYCQQANDFPITFGGGTKVEIKR
IC50 for inhibiting the enzymatic activity of CD73 (Calu-6 cells) [1]: 146 ng/mL
